Test results reported in US20080045463.

Target: T1, biotinylated HIF-1α ODD peptide, Q16665
T1 chain: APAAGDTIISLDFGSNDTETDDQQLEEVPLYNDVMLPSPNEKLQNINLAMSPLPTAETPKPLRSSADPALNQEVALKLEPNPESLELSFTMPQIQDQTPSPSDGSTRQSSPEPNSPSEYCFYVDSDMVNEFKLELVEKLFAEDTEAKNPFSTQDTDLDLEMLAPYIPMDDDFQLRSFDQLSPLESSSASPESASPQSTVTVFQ

B1: Human HPH-1 (protein)
chain: MPLGHIMRLDLEKIALEYIVPCLHEVGFCYLDNFLGEVVGDCVLERVKQLHCTGALRDGQLAGPRAGVSKRHLRGDQITWIGGNEEGCEAISFLLSLIDRLVLYCGSRLGKYYVKERSKAMVACYPGNGTGYVRHVDNPNGDGRCITCIYYLNKNWDAKLHGGILRIFPEGKSFIADVEPIFDRLLFFWSDRRNPHEVQPSYATRYAMTVWYFDAEERAEAKKKFRNLTRKTESALTED
  ^35S-pVHL pulldown enzyme assay activity (Pro564 hydroxylation of the peptide): As exemplified by HPH-1, the ^35S-pVHL pulldown enzyme assay activity of each HPH homologue was dependent on 2-OG, Fe(II), and ascorbate

B2: Human HPH-2 (protein)
chain: MANDSGGPGGPSPSERDRQYCELCGKMENLLRCSRCRSSFYCCKEHQRQDWKKHKLVCQGSEGALGHGVGPHQHSGPAPPAAVPPPRAGAREPRKAAARRDNASGDAAKGKVKAKPPADPAAAASPCRAAAGGQGSAVAAEAEPGKEEPPARSSLFQEKANLYPPSNTPGDALSPGGGLRPNGQTKPLPALKLALEYIVPCMNKHGICVVDDFLGKETGQQIGDEVRALHDTGKFTDGQLVSQKSDSSKDIRGDKITWIEGKEPGCETIGLLMSSMDDLIRHCNGKLGSYKINGRTKAMVACYPGNGTGYVRHVDNPNGDGRCVTCIYYLNKDWDAKVSGGILRIFPEGKAQFADIEPKFDRLLFFWSDRRNPHEVQPAYATRYAITVWYFDADERARAKVKYLTGEKGVRVELNKPSDSVGKDVF
  ^35S-pVHL pulldown enzyme assay activity (Pro564 hydroxylation of the peptide): the ^35S-pVHL pulldown enzyme assay activity of each HPH homologue was dependent on 2-OG, Fe(II), and ascorbate
